US12517124B2, “Chimeric receptor for use in whole-cell sensors for detecting analytes of interest” (INSERM (Institut National de la Sante et de la Recherche …, priority 2017, dated 2026)

B1: full-length LexA: full-length LexA transcriptional repressor, positive control (protein, UniProt P0A7C2 1-202, looked up)
chain: MKALTARQQEVFDLIRDHISQTGMPPTRAEIAQRLGFRSPNAAEEHLKALARKGVIEIVSGASRGIRLLQEEEEGLPLVGRVAAGEPLLAQQHIEGHYQVDPSLFKPNADFLLRVSGMSMKDIGIMDGDLLAVHKTQDVRNGQVVVARIDDEVTVKRLKKQGNKVELLPENSEFKPIVVDLRQQSFTIEGLAVGVIRNGDWL
modifications: full-length
notes: full-length LexA transcriptional repressor, positive control
B2: CadC-wtTM-GCN4: CadC DNA binding domain, wild type CadC transmembrane region, C-terminal autodimerization leucine zipper GCN4 (protein)
chain: MQQPVVRVGEWLVTPSINQISRNGRQLTLEPRLIDLLVFFAQHSGEVLSRDELIDNVWKRSIVTNHVVTQSISELRKSLKDNDEDSPVYIATVPKRGYKLMVPVIWYSEEEGEEIMLSSPPPIPEAVPATDSPSHSLNIQNTATPPEQSPVKSKRFTTFWVWFFFLLSLGICVALVAFSSLDTRLPMLEDKVEELLSKNYHLENEVARL

Tests used:
[1] = system: Green Fluorescent Protein (GFP) driven by the LexA promoter; type: cell-based, E. coli; details: different IPTG concentrations
Source text: In order to prevent interference from endogenous E. coli LexA, we used the mutant LexA-408, and its corresponding promoter which is not recognized by the wild type LexA. We fused LexA DBD to a monomeric LBD that undergoes ligand-induced homodimerization. Thus, in the presence of ligand, LexA DBD should be able to bind DNA and repress target gene expression.
We used a single-domain VHH camelid antibody that can be dimerized upon binding to its ligand caffeine (termed VHH-Caffeine from herein). As a negative control we chose a VHH targeting RNase A (termed VHH-Control from herein).
Detection of caffeine using a LexA-VHH fusion. We built two chimeric proteins, expressed in E. coli cytoplasm, composed of an N-terminal LexA DBD and a C-terminal VHH, and placed their expression under the control of the pLacO1 promoter induced by isopropyl β-D-1-thiogalactopyranoside (IPTG). As a reporter, we used the Green Fluorescent Protein (GFP) driven by the LexA promoter. As positive and negative controls, we expressed full-length LexA and LexA DBD. […] We then characterized the behavior of cells expressing LexAVHH-Caffeine and LexA-VHH-Control in response to increasing concentrations of IPTG and caffeine (data not shown). […] We then monitored the response of the LexA-VHH fusions to increasing concentrations of caffeine at different IPTG concentrations. […] We calculated the fold repression of LexA-VHH-Caffeine.

[2] = system: reporter GFP through pCadBA promoter; experiment: Activation of CadC transcriptional factor by periplasmic GCN4 domain oligomerization, GFP reporter, flow cytometry; type: cell-based, E. coli; details: compared to construct without GCN4; 1 mM IPTG
Source text: CadC and LexA transcriptional factor DNA binding domain, Leucine zipper GCN4, VHHcafe and VHHRNase were synthesized by INTEGRATED DNA TECHNOLOGIES® (IDT®). Different DNA components such as GFP reporter, CadBA promoter, pLexA promoter and CadC variants were constructed into BIOBRICK® standard vector pSB4K5 by Gibson assembly methods. The resulting constructs were transformed into E. coli strain NEB®10beta (NEW ENGLAND BIOLABS®, NEB®) and determined their performance. In all constructs, the expression level of CadC variants are under the control of pLac-1 promoter, which can be induced by IPTG. The CadC variants control the expression of reporter GFP through pCadBA promoter.
Pick a single colony of CadC operating unit variant into 3 mL of LB/kanamycin medium and incubate in 37° C. overnight with vigorous shaking. The overnight culture is further diluted 100 fold into 3 mL of LB/kanamycin medium and incubated in 37° C. for 4 hours to reach to exponential phase (O.D=0.4˜0.6). […] The resulting cell culture was further analyzed with ATTUNE® NxT flow cytometer. […]

Molecule | response to increasing concentrations of caffeine [1] | fold activation of downstream reporter gene (GFP) expression [2]
B1 | not affected by caffeine | –
B2 | – | 50 fold
